Reference: the domain aggregation screens of Martell et al. (2025)

Assay: soluble fraction after stress (log2 fold change); higher = more stays soluble; pooled small domains, quantitative proteomics
Conditions: stress: pH 4
Procedure, shortened: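 Custom libraries of small protein domains were pooled and exposed to pH 4. High-throughput quantitative proteomics then measured the log2 fold change in the amount of each domain still soluble, with higher values meaning more stayed soluble. This soluble-fraction fold change stands for aggregation propensity.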

Row | Sequence | soluble fraction (log2)
1 | HMNIVVSSIDSNSFEIVNKETGEQAVISYDKETKKGFVLINGVKKEFFQDGNKVYYDGYVIAE | -0.466
2 | HMNKDEFLNELKSYLSILEDEEQADILEEYTQHIDMKISTGLSEAEAIRDFGNVSELAAQILEAY | -0.343
3 | HMNKIGTIVSINGPIVKTAGDVGFVMHEMVYVGKEKLVGEVIGLTTDFTIVEVYEETSGIKPGETIEGT | 0.00293
4 | HMNKKEIISVLEKIIPPSQIKNINIFGSELVIDLNIDNPSLHAKKKLEKSIMSSFDENLKIIVNFSVE | 0.22
5 | HMNKLSISALAETVSTKRKEKSMTQQDLSDATGINRALISRLEQKDFIPSIPQLEKLEEILGFELEEVF | -0.998
6 | HMNKMHKLPSVSEILNKVRLQKIHNESFIKFKIKEEIDRYRKLAKKDQLFLSRDEITYEIIEKLLNFSMPS | -0.771
7 | HMNKMIDAPDLTGLSLEDAKLVLEANKLQLGTVSHEPSDKPEDVVISQDPMEGQEIQQGGKVNLVVSYGD | -0.104
8 | HMNKNNLRNVSSKIRKSRRVLNLSQAELSKKLDISPSYLNLIESGKRPITVPLLIKLGNILGISLKDL | 0.201
9 | HMNKNQIGTNAGIVWKLLSDNVHWEYDKLKHASGLSDRDLNAAIGWLAREDKIDFDIDEQHDRLFL | -0.255
10 | HMNKPKIIINSVDDSVFSDYVKDSLSIAEVARSIGIDNNKINTSVYREIHKRIDSLKLDTSHFTGGAWN | -0.634
11 | HMNKPLFVYPNPVHQGKINLSKATNFMVVDLLGQTVNKTNYGKDFSIDNLPNGVYFIKTTEGEIIKFMK | -0.496
12 | HMNKQEFLNTLRIIFKKANVLDVESIIDVYEEHFAVGYEKGLNDEQIIKSLGTPKEIYTSYVEAGI | -1.16
13 | HMNKSGVVLIRVTVDASGRVTSAAYEPKGSTTSDVELVAEARKAALRTRFTESRTVIEGGVITYIFKL | -0.0968
14 | HMNKSYTVPDVRGMTVEEAQEAEGVKDIFTVHVQGTRKTDEYQPGQIVEQDPIAGRTRKSNFVIEVYVAE | -0.237
15 | HMNKTQLQIEDEVLKPLIAEIFSKSKGRFGARKIRSKLMGLGYTASERRILRLMKELGLSSAG | ≥ 0.43
16 | HMNKTVKIPNVSNLSREDAESVLKENGISVNSEVKQIESDTIEKGKVVKTDPSIGTSVKKGRSITIYVSSG | 0.134
17 | HMNKWMQLASEEDKKLFNEAPKEIQDSITESAKFFDIRTKADVDTFWANTGLRQMKQQAMLNESFVNEY | -0.482
18 | HMNLDMVINKIGIVTEDIKQDKIGEVKVLGKRWSAYSNTELKKDEKVKILSIDGVKLKVEKI | 0.413
19 | HMNLGAHVYWRNHRAYGDFREYEDVGGGREALALPGSTWGTKDPRVAQALFAARLTEFQEARVGR | -0.148
20 | HMNLGVIYSLKAEVRSEPNTFSTRLFEVHEGLKVSINQLENDWVEIELLDGKTGWISNDQIRLI | -0.772
21 | HMNLIFFSENLSTFRKEKGWTQSELAEKLGVKANTISNYEKGISTPDYKIIAKLRELFEMPTDVLLYSNLS | -0.97
22 | HMNLLDYDFFEKMSSKEQEEIVEKVYIDFLNKSTGTNSPFYLKLFEKGKKSYIVNWLNENNF | -1.06
23 | HMNLLSPREKQSLTLYASGLTLREVASELKLSPNSVGKFISRGKFKLNKSGAIVNSKTSIYLELKKRNLI | 0.108
24 | HMNLNESVELGQELLSQALAQLGIRGELSPSTIDKLLAESSAKSMEELYADIGIGKRMPALVARHIFGLMD | -0.491
25 | HMNLQAYQSVLDKLNEEYGTTFRFPTEEELHEVGLTNTVDPRTATVSATEFEKYMRPIAERISQANL | -0.315

Row | Sequence | soluble fraction (log2)
26 | HMNLSAREWTSADGSRTFQGELTGFQDGKVKVRRSDGKSLVFAIELLSESDQQFIKTNQLVIAKKDED | -0.752
27 | HMNLYHALDQQGEVYLTIPPRQSGRGKVTLMIDGRVREMDAMTDGDALKTGSKVRVTEILDENALKVEAM | -0.0493
28 | HMNMAEETLDTAAKILKAAEEEFMEKGYGNAKMMSIAARAGVSHSMLHYYYRSKGKLFQMIFDEKA | -1.06
29 | HMNMAEQGISLDSEAGKARFVSQALPLLKQLPDGVFKQRMLNQLADRVEVTADFIAQQLAQLKAA | -0.266
30 | HMNMAVELEDGTQIFVFSEDGEFAGKRAVIADEEGRPTEENAPAGTHTLRDGRSIVVGEGGVIESVVET | -0.708
31 | HMNMEYQKAINHIVQMVKDGQLIVGSKIPSERDLSESLGIGRNSTREAISILRGMGLVESRHGSGNYIAKD | 0.22
32 | HMNMGEKIRSLIGQFGVTSEDLKNLSVANLLIRMNQEAGDSKTKGILASLLETVNKAGVGNLTPDALGIK | 0.064
33 | HMNMLGEQVRNIRKSRGFTLKALAEQTGLSIGYISQIERNLTDPSLSTLRKISAALDVPTYLFMG | 0.0605
34 | HMNMLGSNIKYLRNRHKLSQQELSEKLGVPRSSLSDYERGHTQVGLDSLIKLADIFDVKIDDLLRSNLSHR | -0.261
35 | HMNMPHEIDANFISSLGRLIDNHGKNYGDFQIFREMFLDYFPRFDELSSNNKEKINRRLYKFFETLFG | -1.44
36 | HMNMVEESVKKSSQWAVFEPNTISTWVKIQAMIENYLYQKWKEGALAGAKPEHAFFVKVGLGETM | 0.0622
37 | HMNNEISINGNKIYFNKNISKVFIYDISGKLIKHKNNFNNNFIDLSEFNSAFYIIKALDINENYTTKKIFL | -0.597
38 | HMNNFTPEHLEKDIEGSLFFRRLKETAREEPGSLTVAQKDFIQMWHDQADGVYTLRQVFVQTAFDHVRSL | 0.22
39 | HMNNFTQSALDTIDGIGKRRKKLLLNHFGSVKLIENASIEDIKKIDGISDLVANKIYNFFNKN | -0.173
40 | HMNNGAEIGAEIRSLRKARGLTLEDLAAKIGRSVGYISQVERGISPLTIPNLKAIAEVLGVGINWFFRGEA | 0.228
41 | HMNNILNYTIAELMEILKIDDLETENVINSSNNLINKSINENNFPLAEFYEDVKNNLIEFIETFDS | -1.08
42 | HMNNLELSEEEKSVLTIIEKEGLIELDKLKTKLELSNKKWDKTLKFLTKNKLAKVVKNDNGLFVEL | 0.0993
43 | HMNNLLEDIKARLMAQAEAGGHIDTETELAEHFGVTRYRIRKELDLLSQMGLLRRQPKNGIEVLTV | 0.22
44 | HMNNLNDIIEIIRIYAKNYARNNPSWNHSELINRIRDKALGEAEDYNIRLSEEDLALITELSLRGL | -1.24
45 | HMNNMVNTLLKLLAEQDVLRGIVRRFTPSSVFVFLQNEEVEVELPLQGRSLAPGQLVELTQEGASVALKRL | -0.679
46 | HMNNPLLDKVYQLMKQNNITEEEIVRAVAMKGYFPDDMKLGDYPDDFIDGVLIGAWDQIKQFIINNISPFK | -0.359
47 | HMNNSDIDITVGKNSISINNPNRTNIIIYSSNGMLIDSSKNASYKRNLPSGIYIVKSGSSTHKVIV | ≥ 0.43
48 | HMNNTIKFFVSQDDDSTRLDVFLSKKIENLTRSNIKKFINLNNVKINKATINSPSKKVKLYDEIEIKFSS | -1.19
49 | HMNNTIKFSVDSQNSGKRLDIFLTENIKNYTRSFLKKLIENRQVKLNNNFIISPSERVKFKDQININILQ | 0.199
50 | HMNNVDIMGRMVYDDQHREVINFGKYKGVLVTEVLKKDPGYFSWIQQGDFPSDMKRIMMAIKLRM | -0.72

Row | Sequence | soluble fraction (log2)
51 | HMNNVDQLIEQYKTLPGGLLPLLHAIKHALGYIPESTVGSIAKGFNLSRAEVHGVISFYHDFNTQP | -0.365
52 | HMNPAYTDSRMKTFLEELPVMKASLSQKHVTRFLVWQEYIGRHPDGYGKSQFFYHLKQNLVAAKG | 0.0452
53 | HMNPDTERIREFVAVSLKNRKVATSGEIQNMIVKQFKNFKLKSHGYSNMKSFLSSIDKIQLNSNGKYSLK | 0.0764
54 | HMNPEDDLLKAIIMKYFSNAQVQVDKNVIEYLLKRVDRDYQNLYNILEKINILSLQRKSKITTHLIRDIM | -0.624
55 | HMNPFLELTEREMDVLRLIAIGRNNQEIASELVISEKTVKTHITNIFSKLHFKDRTQAAAYAWQSGIVR | -1.07
56 | HMNPHGVAIIDVRKGKASTLRSLATSVRSLGEWDQLKIPIFNLESLTSLVLWHGLDAIVKEPESLQSNLIL | -0.222
57 | HMNPHIQFWSLLRRQPDYNSAYKDELKAMFVWQWSGEKTESLNEFYKTDPYRYKSMLMDMRNRAL | -0.354
58 | HMNPIDAHVGARVRLRRMLIGMSQEKLGELLGVTFQQIQKYEKGANRIGASRLYEVSRVLDVPVQYFFDDM | -0.436
59 | HMNPLDGTSVHPESYEAAEKLLKKQGFSLEDISGGKLTGLSLTIKDYARLAKELEIGEITLRDIVKELEK | -0.747
60 | HMNPLHYKAAHWVREGLFDDLKSFVELETRINSIFEEKDRGDVFEIFIEGYRSFSKWRALVLRLA | -0.44
61 | HMNPNEVQIPDLVNKTEEEAEQILKDLKLKLVVKSEEYDENIEKGKIISQDPTYKENYKIKEHSEISVIIS | 0.0816
62 | HMNPNPFVNLSPRELEVLNLLFKGYGVLEISNELNIGQTTASTFKSRILKKTSTHSVVELIKLAEQYGFIP | -0.847
63 | HMNPNPYIVLGVDKSMPFGEIKKVYQRKRREFHPDSLVAKGLPDELLQKAQDKFIAIQEAYKSIEKNQV | 0.0331
64 | HMNPNSIDEKLKLLSNREKEVAILVLKKLSYFEISEQLNITIRTVKAHTKNIYEKFNVSNRLAFLLLFN | -0.209
65 | HMNPSAFSEYSFELLQSALLKKKIDENLSNQTIARDAGVSEAFVQKVLTNNVKRPSVKNRVRMISYLGLD | 0.00228
66 | HMNPSFTMGTRIKEYIDAHYLEDLKLADIAEALHINLYYLSHTFKDLTGSSPMQYIIRRRIEE | -0.603
67 | HMNPSPYLRRHLSGDWGDLDEDDRRSNDAALASGEARLLSSYQVDPDLKLWIITEWDRSVTTLLLPSE | ≥ 0.43
68 | HMNPTLPYGFAKRHGVILLEAGEVAVVGLREGADPAALIETRRALGRPLRVEPLDQATFDRRLSQVYA | -0.15
69 | HMNPTSLTFRSNVKDGKVYVDGIFKGSSDLDFDLPKGRHSIRIEKDGYVPFAKTINLIKALVIDFNMEKA | 0.123
70 | HMNPTTQIQYNLPKSEFVSIYIYDLIGNRVKSLINNYQDAGYKSVYWDAMNDLGQPVSAGMYIY | -0.0442
71 | HMNQKKFIQADYEDRLFDHLAFEVKDMEKIISMMRREKFTITDEPFRLSPTGSLIAFVEDPDRTLIELIER | -0.522
72 | HMNQNAMIGAHIRNLRLAKKLTLKQLSDESGLSVGFLSQLERGMSSIAIDTLARLAHILGADLSSFF | -0.214
73 | HMNQRQLQIKQMLDVAQEVFLKQLKTVFPDVSEMTIRRDLILLEDMGYAVRTHGGAVSINRF | -1.2
74 | HMNQRTATVTASQLNVRSGPSTAYSIVHVLRQGETVEVIGESDGWYQIRLKDGRVGWSSGQYLNLN | -0.481
75 | HMNQSAVMAERMKQTKNRILQTAKEIFLEQGYKRTTIRQIVERSGITSGSIYNIFSSKEEIFSALVDDL | -1.77
